This is an account of results in paper PMC3562449 (Nature Communications, 2013).

Where “and” joins values, the source holds several entries; their conditions need not be identical. Equal values may be shown once.

The target in data set [1] is BASS-NoC double mutant with Cys at residues 671 and 788 (Drosophila) (UniProt P46863). Nature of the data set: SEC + other: sucrose density gradient centrifugation.
The target of data set [2] is BASS-NoC double mutant with Cys at residues 671 and 791 (Drosophila) (UniProt P46863). Described as above.
In data set [3] the target is BASS-NoC single mutant with Cys at residue 788 (Drosophila) (UniProt P46863). The data set is described as above.
Data set [4] deals with BASS-NoC single mutant with Cys at residue 671 (Drosophila) (UniProt P46863). Described as above.
Data set [5] addresses BASS-NoC single mutant with Cys at residue 791 (Drosophila) (UniProt P46863). Described as above.
Data set [6] concerns the molecule itself. The data set can be described thus: SEC. For orientation: In gel filtration, larger molecules generally elute earlier.
Data set [7] deals with the molecule itself. The data set can be described thus: native MS.

The stoichiometry N is the number of molecules, sites or subunits per partner or assembly. Consider “BASS-NoC double mutant with Cys at residues 671 and 788 (from UniProt P46863 631-920) (domain or fragment)”, for which the stoichiometry N in data set [1] came to 4.
Consider “BASS-NoC double mutant with Cys at residues 671 and 791 (from UniProt P46863 631-920) (domain or fragment)”, for which, in data set [2], the stoichiometry N turned out to be 4.
In the case of “BASS-NoC single mutant with Cys at residue 788 (from UniProt P46863 631-920) (domain or fragment)”, in data set [3], the stoichiometry N is 4.
For the molecule “BASS-NoC single mutant with Cys at residue 671 (from UniProt P46863 631-920) (domain or fragment)”, the stoichiometry N in data set [4] stood at 4.
For the molecule “BASS-NoC single mutant with Cys at residue 791 (from UniProt P46863 631-920) (domain or fragment)”, in data set [5], the stoichiometry N stood at 4.

B1: BASS 631–790 (domain or fragment, Drosophila, UniProt P46863 631-790, looked up)
chain: EQMQQQQLLMSKEIQTNLQVIEENNQRHKAMLDSMQEKFATIIDSSLQSVEEHAKQMHKKLEQLGAMSLPDAEELQNLQEELANERALAQQEDALLESMMMQMEQIKNLRSKNSISMSVHLNKMEESRLTRNHRIDDIKSGIQDYQKLGIEASQSAQAEL
Consider B1, for which the “stoichiometry N” value in data set [6] is 4 and 2.

B2: BASS (bipolar assembly) domain of kinesin-5, residues 631–920 (domain or fragment, Drosophila, UniProt P46863 631-920, looked up)
chain: EQMQQQQLLMSKEIQTNLQVIEENNQRHKAMLDSMQEKFATIIDSSLQSVEEHAKQMHKKLEQLGAMSLPDAEELQNLQEELANERALAQQEDALLESMMMQMEQIKNLRSKNSISMSVHLNKMEESRLTRNHRIDDIKSGIQDYQKLGIEASQSAQAELTSQMEAGMLCLDQGVANCSMLQVHMKNLNQKYEKETNENVGSVRVHHNQVEIICQESKQQLEAVQEKTEVNLEQMVDARQQLITEDRQRFIGHATVATDLVQESNRQFSEHAEHQRQQLQICEQELVRFQ
For the molecule B2, in data set [7], the “stoichiometry N” value was 2 and 4.

B3: BASS-core (BASS 631–835) (domain or fragment, Drosophila, UniProt P46863 631-835, looked up)
chain: EQMQQQQLLMSKEIQTNLQVIEENNQRHKAMLDSMQEKFATIIDSSLQSVEEHAKQMHKKLEQLGAMSLPDAEELQNLQEELANERALAQQEDALLESMMMQMEQIKNLRSKNSISMSVHLNKMEESRLTRNHRIDDIKSGIQDYQKLGIEASQSAQAELTSQMEAGMLCLDQGVANCSMLQVHMKNLNQKYEKETNENVGSVRV
B3: the “stoichiometry N” value in data set [6] amounted to 4.
